Assay [1] addresses ASB9 bait in the pAcGFP1-C vector (pAcGFP1-ASB9) (bovine). As to the kind of experiment: co-IP; Matchmaker Co-IP system; HEK 293 cells co-transfected with the pAcGFP1 bait and the pProLabel prey; co-immunoprecipitation with protein G Plus/A agarose beads, read by the ProLabel enzyme complementation assay (RLU every 5 min for 45 min).
The target of assay [2] is pAcGFP1-53 (positive control bait) (UniProt P02340). The description is as above.
Chain of UniProt P02340 (P02340 whole entry): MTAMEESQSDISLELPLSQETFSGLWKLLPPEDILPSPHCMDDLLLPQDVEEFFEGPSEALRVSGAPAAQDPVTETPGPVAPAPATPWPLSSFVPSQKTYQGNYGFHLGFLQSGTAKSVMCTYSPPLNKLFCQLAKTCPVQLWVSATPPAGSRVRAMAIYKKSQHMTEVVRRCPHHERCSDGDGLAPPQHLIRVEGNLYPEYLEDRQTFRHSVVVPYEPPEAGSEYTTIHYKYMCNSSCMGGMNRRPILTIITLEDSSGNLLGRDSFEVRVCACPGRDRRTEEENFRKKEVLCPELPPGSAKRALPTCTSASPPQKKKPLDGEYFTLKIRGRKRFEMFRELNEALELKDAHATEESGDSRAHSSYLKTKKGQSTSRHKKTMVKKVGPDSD

Take “Hypoxia inducible factor 1, alpha subunit (HIF1A) in the pProLabel-C vector (natural protein)”: the fold induction of ProLabel enzymatic activity after co-IP, against the negative control, at 40 minutes in assay [1] turned out to be 13 fold.

For “ProLabel-T (positive control prey) (natural protein)”, the fold induction of ProLabel enzymatic activity after co-IP (positive control) in assay [2] is 37 fold.

Turning to “Tumor necrosis factor alpha-induced protein 6 (TNFAIP6) in the pProLabel-C vector (natural protein)”, the fold induction of ProLabel enzymatic activity after co-IP, against the negative control, at 40 minutes in assay [1] was 18 fold.

The record behind these values is PMC6392328.
